# From the supplement of paper PMC9170038
# System: MS2 coat protein
# Test: apparent KD of MS2 coat protein; higher = weaker reporter binding
# Details: Eterna round: R107
# Outline: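 Designed RNA switches were transcribed on-chip from Illumina sequencing clusters. They were then titrated with SNAP-549-labelled MS2 coat protein (twofold steps, 0.7 or 1.5 nM to 3 µM; 0.8–1.5 h to 10–20 min per step) in 100 mM Tris-HCl pH 7.5, 80 mM KCl, 4 mM MgCl2, without or with constant ligand. Apparent KD is the per-design median of normalised cluster binding-curve fits.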
# [1] = input ligand: theophylline 20 uM
# [2] = input ligand: theophylline 2 mM
# [3] = input ligand: tryptophan 2.4 mM
sequence,measurement,setting,value
AGCGCGGUGAUGGUAGCCGGACGCUAGGUACGAGGACCGGUACGGCCGCCACUCGGAGUCCUACGACAUGAGGAUCACCCAUGUA [Same State Trp A GF16],apparent KD of MS2 coat protein,input ligand: arginine 13.2 mM,61.2 nM
same,apparent KD of MS2 coat protein,[1],106 nM
same,apparent KD of MS2 coat protein,[2],111 nM
AGCGCUGUGCAUGAUACCAGCUACAUGAGGAUCACCCAUGUGCGUCAGAAAUGACUGUGUAGCCCUUGGCAGCAUAAAGCAUGUA [Exclusion - Theophylline B (Freestyle 8)],apparent KD of MS2 coat protein,input ligand: arginine 13.2 mM,19.7 nM
same,apparent KD of MS2 coat protein,[1],26.6 nM
same,apparent KD of MS2 coat protein,[3],19.6 nM
AGGAAACAACAUGAGGAUCACCCAUGUGAUACCAGUCAAAUAAAAGACCCUUGGCAGCACACAUGACAUGAGGAUCACCCAUGUA [AstrosSSTheA#1],apparent KD of MS2 coat protein,input ligand: arginine 13.2 mM,24.8 nM
same,apparent KD of MS2 coat protein,[1],41.5 nM
same,apparent KD of MS2 coat protein,[3],59.8 nM
AGGACGGUCGGAAGGAGCGGUACAUGAGGAUCACCCAUGUACUUAUGGGCAUCCGUAGAGUGCCAGGUAGGUCGCCGAUUGCGGG [XArg-B11],apparent KD of MS2 coat protein,input ligand: arginine 13.2 mM,17.2 nM
same,apparent KD of MS2 coat protein,input ligand: none,33 nM
same,apparent KD of MS2 coat protein,[1],29 nM
same,apparent KD of MS2 coat protein,[2],21.8 nM
same,apparent KD of MS2 coat protein,[3],34.1 nM
AGUAGACACGCGGCCGCCACUUGAGGAUCACCCAAGUGGUGUGUACUUGAAAACAAGUGCACAUCAAGGACCGGGCGUGUCUACA [Omei Tryp B SS D v3],apparent KD of MS2 coat protein,input ligand: arginine 13.2 mM,7.19 nM
same,apparent KD of MS2 coat protein,input ligand: none,7.05 nM
same,apparent KD of MS2 coat protein,[1],8.01 nM
same,apparent KD of MS2 coat protein,[2],7.12 nM
same,apparent KD of MS2 coat protein,[3],8.54 nM
AGUAGACACGCGGCCGCCACUUGAGGAUCACCCAAGUGGUGUGUACUUGAAACAAGUGCACAAUCAAGGACCGGGCGUGUCUACA [Omei Tryp B SS D v4],apparent KD of MS2 coat protein,input ligand: arginine 13.2 mM,5.02 nM
same,apparent KD of MS2 coat protein,input ligand: none,7.02 nM
same,apparent KD of MS2 coat protein,[1],8.77 nM
same,apparent KD of MS2 coat protein,[2],7.77 nM
same,apparent KD of MS2 coat protein,[3],13 nM
AGUAGACACGCGGCCGCCACUUGAGGAUCACCCAGGUGGUGUGUACUUGAAACAAGUGCACAAUCAAGGACCGGGCGUGUCUACA [Omei Tryp B SS D v1],apparent KD of MS2 coat protein,input ligand: arginine 13.2 mM,12.6 nM
same,apparent KD of MS2 coat protein,input ligand: none,13.5 nM
same,apparent KD of MS2 coat protein,[1],17.4 nM
same,apparent KD of MS2 coat protein,[2],15.1 nM
same,apparent KD of MS2 coat protein,[3],83.7 nM
AGUAUCAGUGGAAGGAGCGUCGCGACUGCUACAUGAGGAUCACCCAUGUCGCCUUGAGCGCGACAGGUAGGUCGCCACGGUAGGC [SS-ArgB1],apparent KD of MS2 coat protein,input ligand: arginine 13.2 mM,28.6 nM
same,apparent KD of MS2 coat protein,input ligand: none,49.6 nM
same,apparent KD of MS2 coat protein,[1],68.8 nM
same,apparent KD of MS2 coat protein,[2],72.1 nM
same,apparent KD of MS2 coat protein,[3],40.3 nM
AGUCUUAAUGGAAGGAGCGCAGUCAUAACAUGAGGAUCACCCAUGUCGAGGUGAGGGUCAUUGCAGGUAGGUCGCCAUACUAGGA [Same State - Arginine B (Freestyle 2)],apparent KD of MS2 coat protein,input ligand: arginine 13.2 mM,84.6 nM
same,apparent KD of MS2 coat protein,input ligand: none,181 nM
same,apparent KD of MS2 coat protein,[1],264 nM
same,apparent KD of MS2 coat protein,[2],240 nM
same,apparent KD of MS2 coat protein,[3],131 nM
AGUUUAGACACGGCCGCCACUCGUGACAGAUUUCGCAGUGGUCUACAUGAGGAUCACCCAUGUCUGAGGACCGGGUGUUGAGUUU [XTryp B #8],apparent KD of MS2 coat protein,input ligand: arginine 13.2 mM,76.3 nM
same,apparent KD of MS2 coat protein,[1],177 nM
same,apparent KD of MS2 coat protein,[2],194 nM
AUAAAUAAAACCGAUACCAGCCUUAUACAUGAGGAUCACCCAUGUUAUGCUUCCUUUUUUGGCCCUUGGCAGCGGAAAUGGGUAA [AstrosSSTheB#1],apparent KD of MS2 coat protein,input ligand: arginine 13.2 mM,45.3 nM
same,apparent KD of MS2 coat protein,[1],74.4 nM
same,apparent KD of MS2 coat protein,[3],75.6 nM
AUAACAUGAGGAUCACCCAUGUAAGCAGAUACCAGCUAGGAAACUAGCCCUUGGCAGCUGCAAUCAUGGGUGUGGUAUCUGCUAA [(M1)-(M2)-(T1)-(T2)-(M)'-(T)'_Design5],apparent KD of MS2 coat protein,input ligand: arginine 13.2 mM,21.5 nM
same,apparent KD of MS2 coat protein,[1],39.7 nM
same,apparent KD of MS2 coat protein,[3],16.4 nM
AUAACAUGAGGAUCACCCAUGUAGAGUGAUACCAGACUAUGUAAUGUCCCUUGGCAGCACAAGUAAAGUUAUAAAUAAUGAUAGA [JR_SSTheophyA_Sub001],apparent KD of MS2 coat protein,input ligand: arginine 13.2 mM,89.3 nM
same,apparent KD of MS2 coat protein,[1],126 nM
same,apparent KD of MS2 coat protein,[3],136 nM
AUAAGGUAUCUGCUAUCCUCAUGAGCAGAUACCAGCUAGGAAACUAGCCCUUGGCAGCUGCAACAUGAGGAUCACCCAUGUAAUA [(T)'-(M)'-(T1)-(T2)-(M1)-(M2)_Design1],apparent KD of MS2 coat protein,input ligand: arginine 13.2 mM,64.4 nM
same,apparent KD of MS2 coat protein,[1],118 nM
same,apparent KD of MS2 coat protein,[3],256 nM
AUAAUAAAGUCGGCCGCCACUAUAAACAUGAGGAACAUGAGGAUCACCCAUGUAUGAGGAUCACCUAGGACCGGGACAAAUAUUA [AstrosExyTryB#3],apparent KD of MS2 coat protein,input ligand: arginine 13.2 mM,47.3 nM
same,apparent KD of MS2 coat protein,input ligand: none,57.3 nM
same,apparent KD of MS2 coat protein,[1],88.3 nM
same,apparent KD of MS2 coat protein,[2],63.1 nM
same,apparent KD of MS2 coat protein,[3],54.7 nM
AUAAUAAUGUCGGCCGCCACUAUAAACAUGAGGAACAUGAGGAUCACCCAUGUAUGAGGAUCACCUAGGACCGGGACUAAUAUUA [AstrosExyTryB#5],apparent KD of MS2 coat protein,input ligand: arginine 13.2 mM,33.9 nM
same,apparent KD of MS2 coat protein,[1],57.1 nM
same,apparent KD of MS2 coat protein,[2],52.9 nM
AUACAUGAGGAUCACCCAUGUAAAGUUGAAGGAGCGACCAGAGGGUCAGGUAGGUCGCAACACAUGAGGAUCACCCAUGUAUCGA [DOUBLE!!! :-D #6],apparent KD of MS2 coat protein,input ligand: arginine 13.2 mM,53.3 nM
same,apparent KD of MS2 coat protein,input ligand: none,83.6 nM
same,apparent KD of MS2 coat protein,[1],78.4 nM
same,apparent KD of MS2 coat protein,[2],79.4 nM
same,apparent KD of MS2 coat protein,[3],71.4 nM
